The values below come from article PMC5207143.

Assay [1] has as its target FcγRIIB on Raji cells (human (endogenous in Raji)) (UniProt P31994).
Assay [2] concerns the target human FcγRIIA receptor, Arg131 allotype (on transfected Expi293F cells) (human). The assay is described as follows: flow cytometry on cells; Expi293F cells transiently transfected with a human Fcγ receptor, 48 h after transfection; 1 to 10000 ng/ml test antibody, 1.5 h at 4 °C; R-phycoerythrin anti-human IgG secondary antibody; EC50 by nonlinear regression of mean fluorescence. (A flow cytometer gives signals particle by particle.)

Assay [3] has as its target human FcγRIIB receptor (on transfected Expi293F cells) (human) (UniProt P31994). The assay is described as above.
Assay [4] addresses OX40SF2IgG1E345R/E430G/S440Y (human). In words: SEC-MALS; purified antibody in solution; monomeric peak and a ∼900 kDa peak. (In general: Size exclusion chromatography separates by hydrodynamic size, large species first.)

Chain of human FcγRIIA receptor, Arg131 allotype (on transfected Expi293F cells) (human) (P12318 other isoform, or with tags, fused parts or gaps): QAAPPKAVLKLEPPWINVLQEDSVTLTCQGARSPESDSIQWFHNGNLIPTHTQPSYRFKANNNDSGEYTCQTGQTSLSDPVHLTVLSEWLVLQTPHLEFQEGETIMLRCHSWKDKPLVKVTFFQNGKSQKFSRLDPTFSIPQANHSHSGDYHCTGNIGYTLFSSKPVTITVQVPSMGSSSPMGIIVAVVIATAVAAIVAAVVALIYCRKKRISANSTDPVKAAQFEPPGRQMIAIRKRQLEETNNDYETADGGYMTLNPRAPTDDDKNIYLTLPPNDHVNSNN

B1: OX40SF2IgG1S267E/L328F (antibody, V domains shown)
VH: QVQLVQSGAEVKKPGSSVKVSCKASGYTFKDYTMHWVRQAPGQGLEWIGGIYPNNGGSTYNQNFKDRVTLTADKSTSTAYMELSSLRSEDTAVYYCARMGYHGPHLDFDVWGQGTTVTVSS
VL: DIQMTQSPSSLSASVGDRVTITCKASQDVGAAVAWYQQKPGKAPKLLIYWASTRHTGVPSRFSGSGSGTDFTLTISSLQPEDFATYYCQQYINYPLTFGGGTKVEIK
With B1, the agonism in the HEK-Blue NF-κB reporter assay, HEK-Blue:OX40 cells co-cultured with Raji cells, 10 to 1000 ng/ml antibody; decreased when Raji cells were pre-blocked with 5 μg/ml 2B6 in assay [1] is > 2 fold. Further, the figures for the EC50 in assay [2] and in assay [3] were 1.5 nM and 3.1 nM, respectively. Moreover, the fold more potent EC50 than OX40SF2IgG1 in assay [2] is 20 fold.

B2: OX40SF2IgG1E345R/E430G/S440Y (antibody, V domains shown)
VH: QVQLVQSGAEVKKPGSSVKVSCKASGYTFKDYTMHWVRQAPGQGLEWIGGIYPNNGGSTYNQNFKDRVTLTADKSTSTAYMELSSLRSEDTAVYYCARMGYHGPHLDFDVWGQGTTVTVSS
VL: DIQMTQSPSSLSASVGDRVTITCKASQDVGAAVAWYQQKPGKAPKLLIYWASTRHTGVPSRFSGSGSGTDFTLTISSLQPEDFATYYCQQYINYPLTFGGGTKVEIK
For the molecule B2, the stoichiometry N (as a rule, a count of units in the complex or per binding partner) in assay [4] was 6.
